{"source": "paper PMC5778499", "binders": {"B1": {"name": "f8x (dsDNA)", "DNA 1": "CACCCATTCATTCATTCATTCATTCATTCATTCATTCAG", "DNA 2": "CTGAATGAATGAATGAATGAATGAATGAATGAATGGGTG"}, "B2": {"name": "f4x (dsDNA)", "DNA 1": "CACCCATTCATTCATTCATTCAG", "DNA 2": "CTGAATGAATGAATGAATGGGTG"}, "B3": {"name": "f0x (dsDNA)", "DNA 1": "TGTCCTCTTCCTGCTATGTCATGGCTTATCTTCTTTCACCCAGCAGTATTAGTCAATGTCTCTTGTATGCCTGGCACCT", "DNA 2": "AGGTGCCAGGCATACAAGAGACATTGACTAATACTGCTGGGTGAAAGAAGATAAGCCATGACATAGCAGGAAGAGGACA"}, "B4": {"name": "uhGH (dsDNA)", "DNA 1": "GAGGAGCTTCTAAATTATCCATTAGCACAAGCCCGTCAGTGGCCCCATGCATAAATGTACACAGAAACAG", "DNA 2": "CTGTTTCTGTGTACATTTATGCATGGGGCCACTGACGGGCTTGTGCTAATGGATAATTTAGAAGCTCCTC"}, "B5": {"name": "u4x (4xCATT) (dsDNA)", "DNA 1": "CACCCATTCATTCATTCATTCAG", "DNA 2": "CTGAATGAATGAATGAATGGGTG"}, "B6": {"name": "u5x99 (dsDNA)", "DNA 1": "TGTCCTCTTCCTGCTATGTCATGGCTTATCTTCTTTCACCCATTCATTCATTCATTCATTCAGCAGTATTAGTCAATGTCTCTTGTATGCCTGGCACCT", "DNA 2": "AGGTGCCAGGCATACAAGAGACATTGACTAATACTGCTGAATGAATGAATGAATGAATGGGTGAAAGAAGATAAGCCATGACATAGCAGGAAGAGGACA"}, "B7": {"name": "4xCATT crystallization duplex (f4xCrystF/f4xCrystRC) (dsDNA)", "DNA 1": "CCATTCATTCATTCATTCGGA", "DNA 2": "CCGAATGAATGAATGAATGGT"}, "B8": {"name": "8xCATT 111 biotin (dsDNA)", "DNA 1": "TGTCCTCTTCCTGCTATGTCATGGCTTATCTTCTTTCACCCATTCATTCATTCATTCATTCATTCATTCATTCAGCAGTATTAGTCAATGTCTCTTGTATGCCTGGCACCT", "DNA 2": "AGGTGCCAGGCATACAAGAGACATTGACTAATACTGCTGAATGAATGAATGAATGAATGAATGAATGAATGGGTGAAAGAAGATAAGCCATGACATAGCAGGAAGAGGACA"}, "B9": {"name": "u8x111 (dsDNA)", "DNA 1": "B8 DNA 1", "DNA 2": "B8 DNA 2"}}, "key": {"Pit-1wt [1]": {"target": "T1, Pit-1wt (UniProt P28069 1-291)", "T1 sequence": "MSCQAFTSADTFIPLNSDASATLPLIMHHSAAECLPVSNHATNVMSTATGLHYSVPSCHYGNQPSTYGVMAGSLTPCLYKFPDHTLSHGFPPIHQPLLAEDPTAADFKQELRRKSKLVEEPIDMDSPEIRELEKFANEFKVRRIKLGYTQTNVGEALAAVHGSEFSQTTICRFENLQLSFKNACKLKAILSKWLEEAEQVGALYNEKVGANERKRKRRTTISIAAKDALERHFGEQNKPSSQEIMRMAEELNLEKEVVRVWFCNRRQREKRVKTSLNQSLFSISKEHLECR", "test": "fluorescence anisotropy"}, "Pit-1ΔN [2]": {"target": "T2, Pit-1ΔN (UniProt P28069 105-291)", "T2 sequence": "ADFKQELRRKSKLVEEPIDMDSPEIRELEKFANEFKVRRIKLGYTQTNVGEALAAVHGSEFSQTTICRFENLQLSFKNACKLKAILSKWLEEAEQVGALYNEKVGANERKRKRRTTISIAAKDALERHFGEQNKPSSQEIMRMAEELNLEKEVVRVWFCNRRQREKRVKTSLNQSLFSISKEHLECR", "test": "fluorescence anisotropy"}, "Pit-1ΔN [3]": {"target": "T2, Pit-1ΔN", "test": "fluorescence anisotropy", "remark": "listed apart in the source"}, "Pit-1ΔN [4]": {"target": "T2, Pit-1ΔN", "test": "competition"}, "Pit-1ΔN [5]": {"target": "T2, Pit-1ΔN", "test": "competition", "remark": "listed apart in the source"}, "Pit-1ΔN [6]": {"target": "T2, Pit-1ΔN", "test": "competition", "remark": "listed apart in the source"}, "Pit-1ΔNΔC": {"target": "T3, Pit-1ΔNΔC (UniProt P28069 124-273)", "T3 sequence": "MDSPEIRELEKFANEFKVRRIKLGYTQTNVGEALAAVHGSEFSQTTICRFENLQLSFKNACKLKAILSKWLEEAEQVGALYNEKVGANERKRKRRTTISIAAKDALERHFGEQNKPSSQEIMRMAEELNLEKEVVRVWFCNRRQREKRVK", "test": "gel filtration"}, "Pit-1wt [7]": {"target": "T1, Pit-1wt", "test": "EMSA"}, "UHRF1": {"target": "T4, UHRF1 (UniProt Q96T88 1-793)", "T4 sequence": "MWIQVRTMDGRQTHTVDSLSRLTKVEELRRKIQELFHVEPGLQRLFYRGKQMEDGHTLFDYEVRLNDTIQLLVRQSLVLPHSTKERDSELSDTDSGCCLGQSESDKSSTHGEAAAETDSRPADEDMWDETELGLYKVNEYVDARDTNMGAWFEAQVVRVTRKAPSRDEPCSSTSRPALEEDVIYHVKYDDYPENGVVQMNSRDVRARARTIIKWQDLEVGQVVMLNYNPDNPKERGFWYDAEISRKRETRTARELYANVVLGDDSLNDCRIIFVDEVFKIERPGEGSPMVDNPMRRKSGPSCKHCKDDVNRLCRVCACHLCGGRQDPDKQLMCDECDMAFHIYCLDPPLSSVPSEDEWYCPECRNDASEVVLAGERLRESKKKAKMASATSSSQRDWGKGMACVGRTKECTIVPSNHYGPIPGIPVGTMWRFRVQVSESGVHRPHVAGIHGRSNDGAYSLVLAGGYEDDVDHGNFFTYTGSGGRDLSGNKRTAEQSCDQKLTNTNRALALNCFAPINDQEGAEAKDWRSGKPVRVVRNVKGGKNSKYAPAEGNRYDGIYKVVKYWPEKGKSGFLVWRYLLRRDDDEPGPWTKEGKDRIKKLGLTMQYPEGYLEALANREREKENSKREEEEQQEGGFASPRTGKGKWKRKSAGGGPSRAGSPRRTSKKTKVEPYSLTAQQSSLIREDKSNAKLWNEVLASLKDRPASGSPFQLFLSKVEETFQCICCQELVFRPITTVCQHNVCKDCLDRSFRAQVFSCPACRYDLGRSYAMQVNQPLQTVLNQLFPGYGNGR", "test": "EMSA"}}, "data": [{"binder": "B1", "values": [{"measurement": "Kd", "setting": "Pit-1wt [1]", "value": 35, "unit": "nM"}, {"measurement": "Kd", "setting": "Pit-1ΔN [2]", "value": 27, "unit": "nM"}]}, {"binder": "B2", "values": [{"measurement": "binding result", "setting": "Pit-1ΔN [3]", "value": "binds"}]}, {"binder": "B3", "values": [{"measurement": "Kd", "setting": "Pit-1wt [1]", "value": 167, "unit": "nM"}]}, {"binder": "B4", "values": [{"measurement": "binding result", "setting": "Pit-1ΔN [4]", "value": "binds"}]}, {"binder": "B5", "values": [{"measurement": "binding result", "setting": "Pit-1ΔN [5]", "value": "binds"}]}, {"binder": "B6", "values": [{"measurement": "binding result", "setting": "Pit-1ΔN [6]", "value": "binds"}]}, {"binder": "B7", "values": [{"measurement": "binding result", "setting": "Pit-1ΔNΔC", "value": "binds"}]}, {"binder": "B8", "values": [{"measurement": "binding result", "setting": "Pit-1wt [7]", "value": "binds"}, {"measurement": "Kd", "setting": "UHRF1", "value": "> 1000", "unit": "nM"}]}, {"binder": "B9", "values": [{"measurement": "binding result", "setting": "Pit-1ΔN [6]", "value": "binds"}]}]}
